# Measurements as given in the supplement of paper PMC9170038.
# System: MS2 coat protein
# Assay: apparent KD of MS2 coat protein; higher = weaker reporter binding
# Settings: Eterna round: R107
# Experimental: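 RNA-MaP round R107: designed RNA switches with theophylline, tryptophan, arginine or FMN aptamers are transcribed on-chip within common flanks. They are titrated with SNAP-549-labelled MS2 coat protein in RNA-MaP buffer (100 mM Tris pH 7.5, 80 mM KCl, 4 mM MgCl2), without ligand or with the indicated ligand. Median apparent KD per design.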
# [1] = input ligand: theophylline 20 uM
# [2] = input ligand: theophylline 2 mM
# [3] = input ligand: tryptophan 2.4 mM
Sequence,apparent KD of MS2 coat protein (input ligand: arginine 13.2 mM),apparent KD of MS2 coat protein (input ligand: none),apparent KD of MS2 coat protein [1],apparent KD of MS2 coat protein [2],apparent KD of MS2 coat protein [3]
AAACGACAUGAGGAUCACCCAUGUGCCGAUACCAGCCGGAUAUACGGCCCUUGGCAGCGGAGUAAAUCCGGAGGACAAUGGGUAA [Same State Theophylline A GF6],0.0377 µM,0.057 µM,0.0495 µM,0.0924 µM,0.0395 µM
GUAACACAUGAGGAUCACCCAUGUUCCGAUACCAGUAUUGAAGAUUACCCUUGGCAGCGGGUAGGUCGGAGUGGACGGCCCGAGC [theeternabot_sameState_MS2_Theo_A_8],0.0179 µM,–,0.025 µM,–,0.0237 µM
CAAGAAUGACGUACAGAUAACAAUAACGAUACCAGUACAUCAUUAUACCCUUGGCAGCGUUUCACAUGAGGAUCACCCAUGUACA [theeternabot_exclusion_MS2_Theo_A_14],0.0154 µM,–,0.0201 µM,–,0.0176 µM
CCUCAAUAGACGGCCGCCACUGAAACAUGAGGAUACAUGAGGAUCACCCAUGUGGGUGUGUUACGCAGGACCGGGUCAAGACCCG [Tryp B SS t1],0.304 µM,–,0.435 µM,1.28 µM,–
GACUAUAUGAUAUGUCAGAAAUCCUCGAAACGAGGACCGGUACGGCCGCCACUCGAGUGAUCAACAUGAGGAUCACCCAUGUAAA [Tryp A Ex t1],0.0361 µM,0.0362 µM,0.0475 µM,0.0284 µM,0.0553 µM
UUCAGCUAGUCGGCCGCCACUACAUGAGGAUCACCCAUGUAAUCCUAACACUGCUUCGGCAGUGGUAGGACCGGGACUAGCUGAG,0.0111 µM,–,0.0143 µM,0.0122 µM,–
GCUAGGUCAUCGGCCGCCACUAUUAGUGGUUCGAACAUGAGGAUCACCCAUGUGCCACAUGCGCAUAGGACCGGGAUGACCUAGC [SSTB NP+V+V2 #8],0.0118 µM,–,0.0182 µM,0.0137 µM,–
UCGUGUGUUUCGGAUACCAGUGAAAUCGAUACAUGAGGAUCACCCAUGUGAGAGGAUGUACACCCUUGGCAGCUGGCUGUUGCGG [zezmullin],0.024 µM,–,0.0362 µM,–,0.0342 µM
AGACAUGAGGAUCACCCAUGUAGUAUGGAUACCAGAUCCAGAUUUAUCCCUUGGCAGCUGUGGUACAGCGUUGCAUCGCUCCUAG [Exclusion - Theophylline A (Freestyle 13)],0.0289 µM,–,0.0445 µM,–,0.0317 µM
AUACAUGAGGAUCACCCAUGUGAUGGCCGGCGAGGACCGGUACGGCCGCCACUCGUGAUCCGUCCUGAGAGCAAAGCCCUCAACA [Lequcele],0.0801 µM,–,0.45 µM,0.199 µM,–
AUCGCACCUGGUGAUACCAGCGUUUGCUCGCGACAUGAGGAUCACCCAUGUGGCCAGUGAUGCCCUUGGCAGCAUGGUCGGUGCA [Same State - Theophylline B (Freestyle 27)],0.0755 µM,–,0.309 µM,–,0.314 µM
AUCUUUGACGAUCUGGGAAAACCAGAUCGGCGAGGACCGGUACGGCCGCCACUCGUGUAUAAUAUACAUGAGGAUCACCCAUGUA [#19 Tryptophan A Same State],0.0273 µM,–,0.0613 µM,0.0539 µM,–
AUUUACAUGGUCAUAUAUAUAUCGUCAGAUACCAGACGAGAUAUUGUCCCUUGGCAGCUGUUACAUGAGGAUCACCCAUGUAAUU [JR_Nu_ExcTheophyA_Sub021],0.041 µM,–,0.0564 µM,–,0.0647 µM
ACAUGAGGAUCACCCAUGUGCAGAACGGAUACCAGCGUCCUGGUACGCCCUUGGCAGCCGGACAUGAGGAUCACCCAUGUGUGGA [Exclusion Theophylline A GF29],0.056 µM,–,0.161 µM,–,0.105 µM
GAUGAACUAUUUGAUACCAGACUACAUGAGGAUCACCCAUGUGAGUUUCCUCCUCUGCCAGUCCCUUGGCAGCAAAUAGUUUAUC [XTheo B #7],0.0576 µM,–,0.0969 µM,–,0.0423 µM
UGACAUUGCUCAGAUACCAGACAUGAGGAUCACCCAUGUACCAAGAAAGUACAAUAAAAUGUCCCUUGGCAGCUGAGCAAUGUCU [TheoBX 8 #MS2Left #Theo2],0.0612 µM,–,0.137 µM,–,0.0669 µM
AUGCACGGGCUAAUCUGCGAUUGGCACGAUACCAGAGAUCAAGACCUCCCUUGGCAGCGUGUCACAUGAGGAUCACCCAUGUGGA [theeternabot_exclusion_MS2_Theo_A_40],0.0434 µM,–,0.127 µM,–,0.141 µM
GUUGGACUUUCGGCCGCCACUGAGAGAGUCAUGUGAACAUGAGGAUCACCCAUGUAAUAUAUAUACAGGACCGGGAGGGUUGUAA [4.M],0.0117 µM,–,0.022 µM,0.0139 µM,–
AGUACUCGAACGGAUACCAGCCGGACAUGAGGAUCACCCAUGUCCUACCAUGUCUCGGUUGGCCCUUGGCAGCCGUUCGUGUACA [Omei Theo B SS A v2],0.017 µM,–,0.469 µM,–,0.0958 µM
UAUCUACAUGAAUAGGUUAUUCGAUUAUUUCGAGGACCGGUACGGCCGCCACUCGUUAACAUAUACAUGAGGAUCACCCAUGUUA [JR_Nu_SSTryptoA_Sub024],0.016 µM,–,0.0227 µM,0.0215 µM,–
GGACUAACCAGAAGGAGCGACACGCAGAAACUGCAAAUUCCUCUGCACGAGGAUCACCCGUGUCAGGUAGGUCGCUGGUUAGUCG,0.0299 µM,0.0274 µM,0.0355 µM,0.0366 µM,0.0269 µM
GAUUCGCAGUCGGCCGCCACUAACAUGAGCUGCUAGUUAUUAUCACAUGAGGAUCACCCAUGUCUUAGGACCGGGACAACCUGUU [theeternabot_sameState_MS2_Trp_B_26],0.0483 µM,–,0.0791 µM,0.0853 µM,–
GGUACAUGAGGAUCACCCAUGUGUCAUGAUACCAGACAUGAAAAUGUCCCUUGGCAGCAUGCCAGACGGCCGCGUUUAGCGGCCG [Oresin],0.0186 µM,0.0128 µM,0.0197 µM,0.0196 µM,0.0163 µM
CGCCACUCGAGUGAUCCUCACGAGUGGCUACGAGGACCGGUACGGCCGCCACUCGAAUUAACAUGAGGAUCACCCAUGUAAUCCA [Brourdmod09],0.0211 µM,–,0.217 µM,0.4 µM,–
GUGGACAUGAGGAUCACCCAUGUAAGUCGGCGAGGACCGGUACGGCCGCCACUCGUGUUCUGUCUCAGCUCAAACGUAGCCGGAA [theeternabot_sameState_MS2_Trp_A_13],0.0342 µM,–,0.0518 µM,0.0392 µM,–
UGACAUUGCUGCGAUACCAGACAUGAGGAUCACCCAUGUGCCAAAUAAACGUACAUAAAUGUCCCUUGGCAGCGCAGCAAUGUCU [MAT - Exclusion Theophlline B - Mod of Eli - D29],0.0449 µM,–,0.112 µM,–,0.061 µM
UCUUACUUGGUAGAUACCAGCGUGUUAUCUUUCUUUUGACAUGAGGAUCACCCAUGUAUAUGCCCUUGGCAGCUGCAUAGUGUGU [#02 Same State - Theophylline B],0.0269 µM,–,0.0417 µM,–,0.0301 µM
